Patent US20160215299, “EXPRESSION METHOD OF ACTIVE GOLDFISH TGF2 TRANSPOSON RECOMBINANT TRANSPOSASE PROTEIN” (Shanghai Ocean University, published 2016)

T1: gfTP1 transposase (Tgf2 transposase, 686 aa, recombinant 720 aa) (Carassius auratus)
T1 sequence: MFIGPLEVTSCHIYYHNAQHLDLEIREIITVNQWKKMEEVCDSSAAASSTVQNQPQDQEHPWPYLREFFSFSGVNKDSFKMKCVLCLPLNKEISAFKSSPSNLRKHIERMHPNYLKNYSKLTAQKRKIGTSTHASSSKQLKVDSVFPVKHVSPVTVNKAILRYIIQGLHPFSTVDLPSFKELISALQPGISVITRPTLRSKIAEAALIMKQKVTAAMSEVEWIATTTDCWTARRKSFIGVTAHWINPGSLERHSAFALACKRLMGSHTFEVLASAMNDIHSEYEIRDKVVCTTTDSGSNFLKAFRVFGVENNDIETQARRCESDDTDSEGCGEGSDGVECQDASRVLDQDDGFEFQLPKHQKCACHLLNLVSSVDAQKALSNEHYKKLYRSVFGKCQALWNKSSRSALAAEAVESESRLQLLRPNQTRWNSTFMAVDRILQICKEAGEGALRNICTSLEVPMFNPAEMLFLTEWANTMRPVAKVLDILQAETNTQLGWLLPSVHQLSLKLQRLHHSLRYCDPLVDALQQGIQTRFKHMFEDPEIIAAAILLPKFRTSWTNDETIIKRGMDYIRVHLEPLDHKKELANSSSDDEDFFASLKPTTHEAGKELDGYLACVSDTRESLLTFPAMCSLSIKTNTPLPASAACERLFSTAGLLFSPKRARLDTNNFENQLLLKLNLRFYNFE

T2: gfTP1 transposase (Tgf2 transposase, 686 aa, recombinant 720 aa) (Carassius auratus)
T2 chain: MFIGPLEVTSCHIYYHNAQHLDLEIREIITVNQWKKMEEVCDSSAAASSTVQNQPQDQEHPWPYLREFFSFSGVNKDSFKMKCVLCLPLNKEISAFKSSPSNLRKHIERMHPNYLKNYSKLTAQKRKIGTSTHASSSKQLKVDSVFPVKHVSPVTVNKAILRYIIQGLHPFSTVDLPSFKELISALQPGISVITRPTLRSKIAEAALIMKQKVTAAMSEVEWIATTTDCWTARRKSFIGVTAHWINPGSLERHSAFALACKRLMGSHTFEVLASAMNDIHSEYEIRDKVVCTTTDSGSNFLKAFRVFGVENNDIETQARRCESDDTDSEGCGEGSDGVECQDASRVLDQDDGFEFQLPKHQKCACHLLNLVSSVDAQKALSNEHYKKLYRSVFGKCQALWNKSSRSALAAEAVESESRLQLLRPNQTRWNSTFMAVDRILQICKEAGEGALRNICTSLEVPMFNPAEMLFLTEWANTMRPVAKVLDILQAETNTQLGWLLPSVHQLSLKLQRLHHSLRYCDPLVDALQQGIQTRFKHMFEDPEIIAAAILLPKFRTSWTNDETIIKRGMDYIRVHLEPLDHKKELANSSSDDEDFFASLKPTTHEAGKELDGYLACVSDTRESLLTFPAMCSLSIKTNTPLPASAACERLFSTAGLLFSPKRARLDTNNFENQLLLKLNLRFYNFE


How the values were obtained:
[1] = system: T1, gfTP1 transposase (Tgf2 transposase, 686 aa, recombinant 720 aa) (Carassius auratus); test: cell_activity; conditions: genomic integration rate in one-year-old blunt snout bream (35/77) vs 10% with donor plasmid only; 8-bp direct repeats at insertion sites
[2] = molecular target: T2, gfTP1 transposase (Tgf2 transposase, …); test: EMSA; 25 C, 0.5-1 h; 1x protein shifts probe, 10x gives slower complex (oligomer); control cold probe no signal; conditions: tags: N-terminal 34 aa His6-containing tag from pET-28a, E. coli Rosetta 1(DE3); label: biotin
Description: The 50 by sequences of left and right ends of goldfish Tgf2 transposon labeled by biotin were used as probes. The DNA binding activity was verified by EMSA, using non-denaturing polyacrylamide gel electrophoresis at 80 V for 1.0 h. Lane 1: biotin-labeled probes based on left (or right) end; Lane 2: the supernatant of cells without IPTG induction; Lane 3: co-incubation complex of biotin-labeled cold probes for control and the purified recombinant goldfish gfTP1 transposase; Lane 4: co-incubation complex of biotin-labeled probes based on Tgf2 left (or right) end and the purified 1× recombinant goldfish gfTP1 transposase; Lane 5: co-incubation complex of biotin-labeled probes based on Tgf2 left (or right) end and the purified 10× recombinant goldfish gfTP1 transposase.

Molecule | activity [1] [%] | binding result [2]
donor plasmid pTgf2-zfβ-actin-eGFP | 45 | –
Tgf2 right end 50 bp probe (dsDNA) DNA 1: CAGAGGTGTAAAAGTACTAAAAATATTTACTAAAGTGAAAGTACAAGTAT DNA 2: ATACTTGTACTTTCACTTTAGTAAATATTTTTAGTACTTTTACACCTCTG | – | binds
Tgf2 left end 50 bp probe (dsDNA) DNA 1: CAGAGGTGTAAAAGTACTTAAGTAATTTTACTTGATTACTGTACTTAAGT DNA 2: ACTTAAGTACAGTAATCAAGTAAAATTACTTAAGTACTTTTACACCTCTG | – | binds
